{"source": "patent US20250206839A1", "about": "“METHODS, COMPOSITIONS AND USES FOR SEMA7A MONOCLONAL ANTIBODIES” (THE REGENTS OF THE UNIVERSITY OF COLORADO, A BODY CORPORATE, priority 2022, published 2025)", "molecules": {"B1": {"name": "SmAbH1: mouse monoclonal antibody against SEMA7A generated using the 10-mer immunizing peptide … (SEQ ID NO: 2) (antibody, V domains shown)", "VH": "QVKLQESGTVLARPGASVKMSCKASVYSFTSYWMHWVKQRPGQGLEWIGAIYPGNSDTSYNQKFKGKAKLTAVTSASTAYMELSSLTNEDSAVYYCTRGGAPTMITAYYAMDYWGQGTSVTVSS", "VL": "DIQMTQTTSSLSASLGDRVTISCRASQDISNYLNWYQQKPDGTVKLLIYYTSRLHSGVPSRFSGSGSGTDYSLTISNLEQEDIATYFCQQGNTLPWTFGGGTKLEIKR"}}, "key": {"[1]": {"tested_on": "SEMA7A OE E0771 mouse mammary carcinoma cells", "assay": "E0771 SEMA7A OE mouse mammary carcinoma model, in vivo antibody treatment", "details": "SmAbH1 alone", "protocol": "For initial in vivo studies with SmABHI. SEMA7A OE E0771 mouse mammary carcinoma cells were injected into mice. Twenty days after carcinoma cells were injected. SmAbH1 (e.g., 12 ug) was administered intraperitoneally to the mice every three days until day 36 post-carcinoma cell injection. Tissues were collected at day 36. Tumors, lungs, and LNs were harvested and processed for IHC and flow cytometry to determine the effect of SEMA7A mAb therapy on cells of the tumor microenvironment (TME). In an additional experiment, tumors were treated at day 28 post-injection with a novel SEMA7A directed antibody, monoclonal antibody clone H1. Fully regressed tumors were removed from treatment at day 50) and the animals were re-challenged with an additional tumor inoculation at day 90 to assess SEMA7A mAb effects. Finally, to examine changes in immune cells in the tumor microenvironment, tumors were treated at day 13 post-inoculation and harvested at day 18. During this time period, tumors were actively regressing (FIGS. 2A-2C).\nE0771 model: Female C57/BL6 mice were injected orthotopically into the left and right #4 mammary fat pads with 200,000 E0771 SEMA7A OE mouse mammary carcinoma cells. Tumors were measured every day once tumors became palpable (3 days post injection). […]"}, "MCF7 cells": {"tested_on": "MCF7 cells", "assay": "Cell viability, crystal violet, 48 h", "type": "cell-based, human", "details": "MCF7, 500 nM SmAbH1 vs 8 nM Fulvestrant", "protocol": "(§1) For proliferation assays, cells were plated at 2000 cells per well of a 96-well dish. Four pictures of different regions in each well were taken every four hours for 48 h using an IncuCyte ZOOM (Essen BioScience, Ann Arbor, MI, USA). Percent confluence was determined using the IncuCyte ZOOM software (Essen BioScience). 66cl4 Sema7A DDK cells were plated in a 96-well plate in triplicate at 1,500 cells/well. They sat down over 24 hours and then were treated with 1000 nM IgG control, 10 nM SmAbH1, 100 nM SmAbH1, 200 nM SmAbH1, 500 nM SmAbH1, or 1000 nM SmAbH1. The plate was promptly transferred to the IncuCyte where photos were taken and analyzed every 4 hours for 7 days. For additional treatment studies in MCF7, TC11 and SSM2 cells ([…]) were plated in a 24-well plate in complete media and allowed to sit down over 24 hours. At 24 hours after plating, cells were treated with 500 nM IgG control, 500 nM SmAbH1, 8 nM Fulvestrant or the combination. The plate was incubated at 37 C for 48 hours, then fixed with 10% NBF and stained with crystal violet."}, "66cl4 Sema7A DDK cells": {"tested_on": "66cl4 Sema7A DDK cells", "assay": "IncuCyte percent confluence time course", "type": "cell-based, mouse", "protocol": "as §1"}, "SEMA7A": {"biological_target": "T1, SEMA7A (Homo sapiens, UniProt O75326)", "T1 construct": "MCF7 cells endogenously express SEMA7A (75 kDa); endogenous in cells; host or cells: MCF7", "T1 sequence (O75326 45-648)": "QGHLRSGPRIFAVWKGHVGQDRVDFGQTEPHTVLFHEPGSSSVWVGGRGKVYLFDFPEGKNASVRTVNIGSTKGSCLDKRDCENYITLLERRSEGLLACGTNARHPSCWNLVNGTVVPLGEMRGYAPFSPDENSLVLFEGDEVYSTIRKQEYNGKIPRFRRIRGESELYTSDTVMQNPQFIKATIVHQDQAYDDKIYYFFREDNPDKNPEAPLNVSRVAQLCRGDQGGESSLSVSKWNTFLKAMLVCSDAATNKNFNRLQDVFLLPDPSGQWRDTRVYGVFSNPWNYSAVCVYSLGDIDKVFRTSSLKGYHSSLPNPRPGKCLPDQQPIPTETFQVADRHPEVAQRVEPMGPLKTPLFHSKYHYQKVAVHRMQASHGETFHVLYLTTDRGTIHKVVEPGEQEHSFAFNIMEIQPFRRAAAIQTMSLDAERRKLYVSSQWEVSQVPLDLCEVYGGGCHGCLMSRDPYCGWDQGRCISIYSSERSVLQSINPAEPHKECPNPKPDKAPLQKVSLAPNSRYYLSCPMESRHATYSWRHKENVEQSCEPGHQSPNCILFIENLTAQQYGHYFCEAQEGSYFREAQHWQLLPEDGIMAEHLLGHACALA", "assay": "Western blot binding on MCF7 control and SEMA7A OE cell lysates", "details": "200 μg/mL antibody", "protocol": "In another exemplary method, the ability of an anti-SEMA7A monoclonal antibody to bind to SEMATA was tested. In one exemplary method, CUH1 mAb was validated for binding to MCF7 SEMA7A over expressing cell lysate using Western Blot. Specifically. binding of the CUH1 mAb was detected on lysates from MCF7 control cells and SEMA7A overexpressing (OE) cells using 200 μg/mL of SmAbH1. MCF7 cells endogenously express SEMA7A (75 kDa) but OE cells were engineered to overexpress V5 tagged\nMCF7 cells were lysed with RIPA containing EDTA (Thermo Scientific) and spun at 14K for 15 min. The supernatant was then quantitated using a Qubit Assay (Invitrogen) standard protocol and mixed 3:1 with Laemmli Sample Buffer (BioRad) with 2-mercaptoethanol and heated at 70 degrees for 10 min. 100 μg of lysate was loaded onto 4-20% Tris-Glycine gel (BioRad) and transferred to a PVDF membrane (Milipore). The membrane was blocked with 5% Bovine Serum Albumin (BSA) for 3 hours and then probed with 200 μg/ml of CUH1 in 5% BSA overnight at 4 degrees with gentle rocking. The membrane was washed three times 15 minutes with TBS-T and then probed with 10 ng/ml Goat Anti-Mouse IgG HRP (Abcam 97040) in 5% BSA for 1 hour at room temp. The membrane was washed and then incubated with 1:1 mix SuperSignal West Pico (Thermo Scientific) for 4 min at room temp."}, "pNFκB in MDA231 cells": {"tested_on": "pNFκB in MDA231 cells", "assay": "Western blot for phosphorylation of NFκB", "type": "cell-based, human", "details": "MDA231, high SEMA7A", "protocol": "(§2) In another exemplary method, the ability of the anti-SEMA7A monoclonal antibodies to affect cellular processes related to cell survival was tested. In one exemplary method, human triple negative breast cancer cell lines with low (MDA468) or high (MDA231) levels of SEMA7A were treated with SmAbH1 (CUH1) or commercially available monoclonal antibody-based inhibitors of an integrin receptor for SEMA7A (α6β1) and then evaluated using Western blot for phosphorylation of NFκB (pNFκB), a key survival marker."}, "pNFκB in MDA468 cells": {"tested_on": "pNFκB in MDA468 cells", "assay": "Western blot for phosphorylation of NFκB", "type": "cell-based, human", "details": "MDA468, low SEMA7A", "protocol": "as §2"}}, "note": "“Also recorded” adds a separate entry of the source.", "data": [{"molecule": "B1", "values": [{"measurement": "tumor growth and metastasis compared to anti-PD-L1 and the combination", "setting": "[1]", "value": "superior at reducing both tumor growth and metastasis"}, {"measurement": "cell viability compared to fulvestrant", "setting": "MCF7 cells", "value": "more significantly reduced"}, {"measurement": "viability / percent confluence over time", "setting": "66cl4 Sema7A DDK cells; 66cl4, 10-1000 nM SmAbH1, 7 days", "value": "decreased viability; also recorded: dose dependency"}, {"measurement": "decrease of cellular confluence compared to commercially available SEMA7A directed antibodies", "setting": "66cl4 Sema7A DDK cells; 66cl4 DDK and DDK SEMA7A cells, vs SC-374432 and Ab23578", "value": "greater than commercially available"}, {"measurement": "binding to SEMA7A in cell lysates", "setting": "SEMA7A", "value": "successfully bound to both endogenous (75 kDa) and overexpressed (100 kDa) SEMA7A"}, {"measurement": "downstream NFκB activation (pNFκB levels)", "setting": "pNFκB in MDA231 cells", "value": "blocked downstream NFκB activation; also recorded: the effect was stronger"}, {"measurement": "downstream NFκB activation (pNFκB levels)", "setting": "pNFκB in MDA468 cells", "value": "blocked downstream NFκB activation"}]}]}
